Data published in publication PMC9278117.

Tests used:
[1] = molecular target: 4A8 monoclonal antibody; test: BLI
[2] = molecular target: CB6 monoclonal antibody; test: BLI

**Q.** Which results are given for “SARS-CoV-2 S1-SpyTag monomer (from UniProt P0DTC2 16-685) (domain or fragment)”?
**A.** Kd [1]: 34.1 nM; Kd [2]: 5.48 nM
